Measurements taken from patent US20100092465A1, “TREATMENT OF GRAFT-VERSUS-HOST DISEASE” (priority 2006, published 2010).
“And” between values parts separate entries of the source, which are not always exact repeats. Equal entries are not always repeated.

Tests used:
[1] = target: T1, human ligand (single-chain IL27) (Homo sapiens, UniProt Q14213+Q8NEV9); test: SPR kinetics of soluble receptor with human IL27 ligand; settings: binding with human ligand; gp130 not included
T1 construct: amino-terminal peptide tag (N)
T1 sequence (Q14213+Q8NEV9 with tags, fused parts or gaps): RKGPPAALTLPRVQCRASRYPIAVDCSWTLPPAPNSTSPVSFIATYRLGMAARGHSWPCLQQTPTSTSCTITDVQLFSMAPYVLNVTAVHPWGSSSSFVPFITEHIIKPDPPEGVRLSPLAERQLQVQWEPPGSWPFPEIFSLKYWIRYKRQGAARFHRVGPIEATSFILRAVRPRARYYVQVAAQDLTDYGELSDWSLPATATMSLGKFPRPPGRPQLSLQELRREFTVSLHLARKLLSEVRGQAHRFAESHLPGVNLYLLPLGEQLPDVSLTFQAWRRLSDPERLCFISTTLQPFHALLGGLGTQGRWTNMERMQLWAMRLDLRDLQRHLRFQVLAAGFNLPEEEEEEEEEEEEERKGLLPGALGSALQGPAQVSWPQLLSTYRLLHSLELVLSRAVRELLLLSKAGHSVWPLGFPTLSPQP
Experimental: Kinetic rate and affinity constant values for the mouse (IL27RAm(mFc1), Example 3) and human (IL27RA-Fc5, Example 4) soluble receptors were obtained by surface plasmon resonance (SPR) using an automated instrument (BIACORE 3000; Biacore International AB, Uppsala, Sweden). The mouse soluble receptor was tested against mouse ligand (lot A1418F), and the human soluble receptor was tested against both mouse (A1426F) and human (A1534F) ligands. For determination of the kinetic rate constants for the receptor-ligand interactions, the gp130 molecule was not included as part of the receptor complex.
The IL27 ligands used in this study were single-chain molecules comprising EBI3 connected by its C-terminus to the N-terminus of IL-27 p28 via a polypeptide linker. Each of the ligands included an amino-terminal peptide tag.
For the mouse IL27RA study, the soluble receptor was captured onto the chip surface by an isotype-specific anti-mouse Fc antibody (obtained from Jackson ImmunoResearch Laboratories, Inc., West Grove, Pa.) covalently immobilized to the chip (BIACORE CM5 chip) using the standard amine coupling protocol specified by the instrument manufacturer. […]
All data were assessed using software provided with the instrument (BIACORE Evaluation software v. 3.2). […]

mouse IL-27 = target: T2, mouse IL-27 (Mus musculus, UniProt O35228+Q8K3I6); test: IL-27 inhibition of IL-2 production neutralized by IL-27RA Fc; format: cell-based
T2 sequence (O35228+Q8K3I6 with tags, fused parts or gaps): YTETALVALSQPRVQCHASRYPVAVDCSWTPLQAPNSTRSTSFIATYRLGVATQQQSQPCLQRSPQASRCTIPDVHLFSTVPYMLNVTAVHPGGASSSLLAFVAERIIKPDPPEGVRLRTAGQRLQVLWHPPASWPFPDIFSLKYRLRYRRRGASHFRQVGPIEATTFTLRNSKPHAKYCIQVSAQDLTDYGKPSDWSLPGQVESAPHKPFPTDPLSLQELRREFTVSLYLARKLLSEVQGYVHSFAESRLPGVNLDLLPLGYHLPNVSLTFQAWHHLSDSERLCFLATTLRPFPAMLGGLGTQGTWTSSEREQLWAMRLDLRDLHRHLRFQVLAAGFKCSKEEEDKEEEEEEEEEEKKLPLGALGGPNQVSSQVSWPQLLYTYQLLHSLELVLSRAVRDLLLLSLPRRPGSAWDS
Experimental: For testing of the soluble receptor, single-chain mouse IL-27 (10 ng/ml) was preincubated for 30 minutes at 37 degrees C. with either IL27RAm(mFc1) (10.0 and 5.0 .micro.g/ml), IL27RA-Fc5, mouse Fc1 protein (10.0 and 5.0 .micro.g/ml), human Fc5 protein (10.0 and 5.0 .micro.g/ml), or no recombinant protein in wells of the anti-CD3 coated plates. 4×10^5 CD4^+ CD62L high cells were added to the wells. Duplicate plates were set up for all experimental conditions. The plates were then cultured at 37 degrees for up to 72 hours. Cell supernatants were collected from one set of plates at 48 hours and from the duplicate set of plates at 72 hours. The supernatants were stored frozen at −80° C.

Question: “human IL-27RA-Fc5: human IL27RA extracellular domain (amino acids 1 to 512 of SEQ ID NO:5) fused to Fc5, effector minus human gamma1 Fc; SEQ ID NO:3” was tested. Which ka [1] did it give?
Answer: Its ka is 1e+07 M⁻¹ s⁻¹.

Question: And the kd [1]?
Answer: Its kd is 0.0019 s⁻¹.

Question: What about the IL-2 concentration (mouse IL-27; 48 hr, protein conc. 5 (µg/ml; Fc controls in molar equiv.) + IL-27 10 ng/ml) of the same substance?
Answer: The IL-2 concentration was 5784.11 pg/mL.

Question: And the IL-2 concentration (mouse IL-27; 48 hr, protein conc. 10 (µg/ml; Fc controls in molar equiv.) + IL-27 10 ng/ml, listed as hIL-27RA)?
Answer: The IL-2 concentration was 5774.94 pg/mL and 5333.6 pg/mL.

Question: And the IL-2 concentration (mouse IL-27; 72 hr, protein conc. 5 (µg/ml; Fc controls in molar equiv.) + IL-27 10 ng/ml)?
Answer: The IL-2 concentration was 1869.62 pg/mL.

Question: And the IL-2 concentration (mouse IL-27; 72 hr, protein conc. 10 (µg/ml; Fc controls in molar equiv.) + IL-27 10 ng/ml, listed as hIL-27RA)?
Answer: Its IL-2 concentration is 28607.63 pg/mL and 17481.17 pg/mL.

Question: What about the “inhibition (partial block) of the ability of mouse IL-27 to inhibit IL-2 production” value (mouse IL-27; naïve CD4 T cells) of the same substance?
Answer: Its value is ~50%.
